In experiment [1] the target is FGFR2-IIIb (human) (UniProt P21802). Briefly: SPR, IgG. For orientation: SPR reads the build-up and loss of mass on a sensor chip optically.
Experiment [2] has the same target. Kind of experiment: SPR (Biacore T100), IgG captured by anti-human Fc, FGFR flowed.
Experiment [3] concerns the target FGFR3-IIIb (human). Described as above.
Experiment [4] has as its target FGFR2-IIIb (human) (UniProt P21802). Briefly: blocking ELISA: FGFR2-IIIb-Fc captured on an anti-human Fc plate, antibody titrated, FGF-7 (with heparin) is the blocked ligand, bound FGF-7 read as OD450.
Experiment [5] concerns the target FGFR3-IIIb (human). Briefly: blocking ELISA: FGFR3-IIIb-Fc captured on an anti-human Fc plate, antibody titrated, FGF-1 (with heparin) is the blocked ligand, bound FGF-1 read as OD450. (In general: An ELISA detects its analyte on a solid surface through an enzyme-linked reagent.)
Experiment [6] addresses FGFR2-IIIb (human) (UniProt P21802). Briefly: SPR.
In experiment [7] the target is FGFR3-IIIb (human). Kind of experiment: SPR.
Sequence of FGFR3-IIIb (human) (chain, as listed by the source limits assumed): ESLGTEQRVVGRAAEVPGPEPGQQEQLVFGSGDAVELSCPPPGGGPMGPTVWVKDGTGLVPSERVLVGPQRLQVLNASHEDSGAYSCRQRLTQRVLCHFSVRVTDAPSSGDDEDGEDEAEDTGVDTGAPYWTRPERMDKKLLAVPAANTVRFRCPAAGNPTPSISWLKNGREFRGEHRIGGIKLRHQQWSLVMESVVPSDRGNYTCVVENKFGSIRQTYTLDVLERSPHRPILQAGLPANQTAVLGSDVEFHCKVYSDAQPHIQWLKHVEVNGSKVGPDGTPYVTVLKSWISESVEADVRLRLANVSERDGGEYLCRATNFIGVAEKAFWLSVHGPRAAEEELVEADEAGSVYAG

Sequence of FGFR2-IIIb (human) (P21802 other isoform, or with tags, fused parts or gaps limits assumed): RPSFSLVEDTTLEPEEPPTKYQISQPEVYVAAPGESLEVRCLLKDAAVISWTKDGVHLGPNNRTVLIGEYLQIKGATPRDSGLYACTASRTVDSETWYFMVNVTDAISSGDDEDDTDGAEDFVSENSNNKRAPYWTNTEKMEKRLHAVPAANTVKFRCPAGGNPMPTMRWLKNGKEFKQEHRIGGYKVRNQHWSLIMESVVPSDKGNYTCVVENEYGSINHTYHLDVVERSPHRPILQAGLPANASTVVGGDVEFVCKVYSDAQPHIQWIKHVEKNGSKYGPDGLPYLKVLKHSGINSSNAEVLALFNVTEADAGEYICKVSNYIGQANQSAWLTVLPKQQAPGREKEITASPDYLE

B1: 2B.1.3.10 (antibody, human IgG1, kappa, V domains shown)
VH: EVQLVESGGGLVQPGGSLRLSCAASGFPFTSQGISWVRQAPGKGLEWVGRTHLGDGSTNYADSVKGRFTISADTSKNTAYLQMNSLRAEDTAVYYCARTYGIYDTYDKYTEYVMDYWGQGTLVTVSS
VL: DIQMTQSPSSLSASVGDRVTITCRASQDVDTSLAWYKQKPGKAPKLLIYSASFLYSGVPSRFSGSGSGTDFTLTISSLQPEDFATYYCQQSTGHPQTFGQGTKVEIKR
In the case of B1, the Kd is 2.9 nM in the experiment with FGFR2-IIIb (human) [1], 2.9 nM with FGFR2-IIIb (human) [2] and 0.11 nM in the experiment with FGFR3-IIIb (human) [3]. The values for the IC50 (read off the curve) in the experiment with FGFR2-IIIb (human) [4] and in the experiment with FGFR3-IIIb (human) [5] were 2 nM and 1 to 2 nM, respectively.

B2: 2B.1.32 (antibody, human IgG1, kappa, V domains shown)
VH: EVQLVESGGGLVQPGGSLRLSCAASGFTFTSTGISWVRQAPGKGLEWVGRWVGFTGSTNYADSVKGRFTISADTSKNTAYLQMNSLRAEDTAVYYCARTYGIYDLYVDYTEYVMDYWGQGTLVTVSS
VL: DIQMTQSPSSLSASVGDRVTITCRASQDVDTSLAWYKQKPGKAPKLLIYSASFLYSGVPSRFSGSGSGTDFTLTISSLQPEDFATYYCQQSTGHPQTFGQGTKVEIKR
As to B2, the Kd with FGFR2-IIIb (human) [2] was determined as 1.2 nM; with FGFR3-IIIb (human) [3], 0.06 nM.

B3: 2B.1.95 (antibody, human IgG1, kappa, V domains shown)
VH: EVQLVESGGGLVQPGGSLRLSCAASGFTFTSTGISWVRQAPGKGLEWVGRLIFFTGSTNYADSVKGRFTISADTSKNTAYLQMNSLRAEDTAVYYCARTYGIYDLYVDYTEYVMDYWGQGTLVTVSS
VL: DIQMTQSPSSLSASVGDRVTITCRASQDVDTSLAWYKQKPGKAPKLLIYSASFLYSGVPSRFSGSGSGTDFTLTISSLQPEDFATYYCQQSTGHPQTFGQGTKVEIKR
Take B3: the Kd is 1.8 nM in the experiment with FGFR2-IIIb (human) [2] and 0.19 nM with FGFR3-IIIb (human) [3].

B4: 2B.1.1 (antibody, human IgG1, kappa, V domains shown)
VH: EVQLVESGGGLVQPGGSLRLSCAASGFTFTSTGISWVRQAPGKGLEWVGRYWAWDGSTNYADSVKGRFTISADTSKNTAYLQMNSLRAEDTAVYYCARTYGIYDLYVDYTEYVMDYWGQGTLVTVSS
VL: DIQMTQSPSSLSASVGDRVTITCRASQDVDTSLAWYKQKPGKAPKLLIYSASFLYSGVPSRFSGSGSGTDFTLTISSLQPEDFATYYCQQSTGHPQTFGQGTKVEIKR
For the molecule B4, the figures for the Kd with FGFR2-IIIb (human) [6], in the experiment with FGFR2-IIIb (human) [2] and with FGFR3-IIIb (human) [3] were 0.29 nM, 0.29 nM and 0.09 nM, respectively.

B5: 2B.1.3.6 (antibody, human IgG1, kappa, V domains shown)
VH: EVQLVESGGGLVQPGGSLRLSCAASGFTFTSTGISWVRQAPGKGLEWVGRTHLGDGSTNYADSVKGRFTISADTSKNTAYLQMNSLRAEDTAVYYCARTYGIYDTYDEYTEYVMDYWGQGTLVTVSS
VL: DIQMTQSPSSLSASVGDRVTITCRASQDVDTSLAWYKQKPGKAPKLLIYSASFLYSGVPSRFSGSGSGTDFTLTISSLQPEDFATYYCQQSTGHPQTFGQGTKVEIKR
As for B5, the Kd with FGFR2-IIIb (human) [1] was 5.9 nM.

B6: 2B.1.3.12 (antibody, human IgG1, kappa, V domains shown)
VH: EVQLVESGGGLVQPGGSLRLSCAASGFPFTSTGISWVRQAPGKGLEWVGRTHLGDGSTNYADSVKGRFTISADTSKNTAYLQMNSLRAEDTAVYYCARTYGIYDTYDMYTEYVMDYWGQGTLVTVSS
VL: DIQMTQSPSSLSASVGDRVTITCRASQDVDTSLAWYKQKPGKAPKLLIYSASFLYSGVPSRFSGSGSGTDFTLTISSLQPEDFATYYCQQSTGHPQTFGQGTKVEIKR
Consider B6, for which the Kd with FGFR2-IIIb (human) [6] turned out to be 3 nM; with FGFR3-IIIb (human) [7], 0.5 nM; with FGFR2-IIIb (human) [1], 3 nM; with FGFR2-IIIb (human) [2] it was 3 nM; with FGFR3-IIIb (human) [3], 0.5 nM. Moreover, the IC50 (read off the curve) was 2 nM with FGFR2-IIIb (human) [4] and 1 to 2 nM with FGFR3-IIIb (human) [5].

B7: 2B.1.73 (antibody, human IgG1, kappa, V domains shown)
VH: EVQLVESGGGLVQPGGSLRLSCAASGFTFTSTGISWVRQAPGKGLEWVGRMIFYNGSTNYADSVKGRFTISADTSKNTAYLQMNSLRAEDTAVYYCARTYGIYDLYVDYTEYVMDYWGQGTLVTVSS
VL: DIQMTQSPSSLSASVGDRVTITCRASQDVDTSLAWYKQKPGKAPKLLIYSASFLYSGVPSRFSGSGSGTDFTLTISSLQPEDFATYYCQQSTGHPQTFGQGTKVEIKR
With B7, the Kd with FGFR2-IIIb (human) [2] is 1.4 nM; with FGFR3-IIIb (human) [3], 0.09 nM.

B8: 2B.1.3.4 (antibody, human IgG1, kappa, V domains shown)
VH: EVQLVESGGGLVQPGGSLRLSCAASGFTFTSTGISWVRQAPGKGLEWVGRTHLGDGSTNYADSVKGRFTISADTSKNTAYLQMNSLRAEDTAVYYCARTYGIYDIYGGYTEYVMDYWGQGTLVTVSS
VL: DIQMTQSPSSLSASVGDRVTITCRASQDVDTSLAWYKQKPGKAPKLLIYSASFLYSGVPSRFSGSGSGTDFTLTISSLQPEDFATYYCQQSTGHPQTFGQGTKVEIKR
Molecule B8 showed a Kd in the experiment with FGFR2-IIIb (human) [1] of 5.8 nM.

B9: 2B.1.3.8 (antibody, human IgG1, kappa, V domains shown)
VH: EVQLVESGGGLVQPGGSLRLSCAASGFPFTSLGISWVRQAPGKGLEWVGRTHLGDGSTNYADSVKGRFTISADTSKNTAYLQMNSLRAEDTAVYYCARTYGIYDIYEKYTEYVMDYWGQGTLVTVSS
VL: DIQMTQSPSSLSASVGDRVTITCRASQDVDTSLAWYKQKPGKAPKLLIYSASFLYSGVPSRFSGSGSGTDFTLTISSLQPEDFATYYCQQSTGHPQTFGQGTKVEIKR
In the case of B9, the Kd with FGFR2-IIIb (human) [1] was determined as 1.4 nM.

B10: 2B.1.3.2 (antibody, human IgG1, kappa, V domains shown)
VH: EVQLVESGGGLVQPGGSLRLSCAASGFTFTSTGISWVRQAPGKGLEWVGRTHLGDGSTNYADSVKGRFTISADTSKNTAYLQMNSLRAEDTAVYYCARTYGIYDTYDNYTEYVMDYWGQGTLVTVSS
VL: DIQMTQSPSSLSASVGDRVTITCRASQDVDTSLAWYKQKPGKAPKLLIYSASFLYSGVPSRFSGSGSGTDFTLTISSLQPEDFATYYCQQSTGHPQTFGQGTKVEIKR
For the molecule B10, in the experiment with FGFR2-IIIb (human) [1], the Kd stood at 6.6 nM. This Kd lies about 4.7-fold higher than the previous one.

B11: 2B.1.86 (antibody, human IgG1, kappa, V domains shown)
VH: EVQLVESGGGLVQPGGSLRLSCAASGFTFTSTGISWVRQAPGKGLEWVGRLSFWTGSTNYADSVKGRFTISADTSKNTAYLQMNSLRAEDTAVYYCARTYGIYDLYVDYTEYVMDYWGQGTLVTVSS
VL: DIQMTQSPSSLSASVGDRVTITCRASQDVDTSLAWYKQKPGKAPKLLIYSASFLYSGVPSRFSGSGSGTDFTLTISSLQPEDFATYYCQQSTGHPQTFGQGTKVEIKR
Take B11: in the experiment with FGFR2-IIIb (human) [2], the dissociation constant Kd stood at 1.3 nM. In other words, the single-digit nanomolar range.

B12: 2B.1.49 (antibody, human IgG1, kappa, V domains shown)
VH: EVQLVESGGGLVQPGGSLRLSCAASGFTFTSTGISWVRQAPGKGLEWVGRLSFFSGSTNYADSVKGRFTISADTSKNTAYLQMNSLRAEDTAVYYCARTYGIYDLYVDYTEYVMDYWGQGTLVTVSS
VL: DIQMTQSPSSLSASVGDRVTITCRASQDVDTSLAWYKQKPGKAPKLLIYSASFLYSGVPSRFSGSGSGTDFTLTISSLQPEDFATYYCQQSTGHPQTFGQGTKVEIKR
Take B12: in the experiment with FGFR2-IIIb (human) [2], the Kd came out at 1.3 nM.

B13: 2B.1.20 (antibody, human IgG1, kappa, V domains shown)
VH: EVQLVESGGGLVQPGGSLRLSCAASGFTFTSTGISWVRQAPGKGLEWVGRLDVFWGSTNYADSVKGRFTISADTSKNTAYLQMNSLRAEDTAVYYCARTYGIYDLYVDYTEYVMDYWGQGTLVTVSS
VL: DIQMTQSPSSLSASVGDRVTITCRASQDVDTSLAWYKQKPGKAPKLLIYSASFLYSGVPSRFSGSGSGTDFTLTISSLQPEDFATYYCQQSTGHPQTFGQGTKVEIKR
On to B13, for which the Kd with FGFR2-IIIb (human) [2] is 1.2 nM.

B14: 2B.1.88 (antibody, human IgG1, kappa, V domains shown)
VH: EVQLVESGGGLVQPGGSLRLSCAASGFTFTSTGISWVRQAPGKGLEWVGRIWMFTGSTNYADSVKGRFTISADTSKNTAYLQMNSLRAEDTAVYYCARTYGIYDLYVDYTEYVMDYWGQGTLVTVSS
VL: DIQMTQSPSSLSASVGDRVTITCRASQDVDTSLAWYKQKPGKAPKLLIYSASFLYSGVPSRFSGSGSGTDFTLTISSLQPEDFATYYCQQSTGHPQTFGQGTKVEIKR
For B14, the Kd with FGFR2-IIIb (human) [2] is 0.64 nM; in the experiment with FGFR3-IIIb (human) [3] it was 0.05 nM.

B15: 2B.1.9 (antibody, human IgG1, kappa, V domains shown)
VH: EVQLVESGGGLVQPGGSLRLSCAASGFTFTSTGISWVRQAPGKGLEWVGRYHPYLGSTNYADSVKGRFTISADTSKNTAYLQMNSLRAEDTAVYYCARTYGIYDLYVDYTEYVMDYWGQGTLVTVSS
VL: DIQMTQSPSSLSASVGDRVTITCRASQDVDTSLAWYKQKPGKAPKLLIYSASFLYSGVPSRFSGSGSGTDFTLTISSLQPEDFATYYCQQSTGHPQTFGQGTKVEIKR
As to B15, the Kd with FGFR2-IIIb (human) [2] worked out at 1.4 nM. In other words, the single-digit nanomolar range.

What is called Kd is the constant that tells how readily two partners part at equilibrium. Higher therefore signals lower affinity.
